Experimental data as given in US20230295238A1, “INSULIN RECEPTOR-MEDIATED ENHANCEMENT OF GENE TRANSFER” (THE SCRIPPS RESEARCH INSTITUTE, priority 2020, published 2023).
pKd: −log10 of the molar value. Entries after “also recorded” stand apart in the source; their conditions may differ. Like-named read-outs stand apart in the source and are kept apart here.

Key:
[1] = biological target: S519(VIII)-AAV9 (enhanced AAV9), mosaic AAV9 vector with insulin-mimetic peptide S519 inserted in capsid VR-VIII (adeno-associated virus serotype 9); assay: cell-based or functional assay
IR [2] = biological target: T1, IR (Homo sapiens, UniProt P06213); settings: cited from earlier work
IR [3] = biological target: T1, IR; settings: cited from earlier work; remark: listed apart in the source
[4] = biological target: human insulin receptor, endogenous on HEK293T / Control 293T cells (human) (UniProt P06213); assay: cell-based or functional assay
[5] = Blood glucose after intramuscular injection in fasted mice; format: in vivo, mouse; settings: 0.5 U/kg intramuscular
Method: Because of the physiological role of insulin in modulating blood glucose levels, we asked whether eAAV9, with its insulin-mimetic insertion, would exert a measurable effect on the blood glucose concentration of mice. Mice were fasted as described above, and blood glucose was measured by microsampling immediately before injection of vectors to obtain a baseline value. Mice were injected in the gastrocnemius muscle with 10^9 vg of WT AAV9, eAAV9, or, as a positive control, human insulin at 0.5 U/kg, a typical therapeutic dose for a patient with diabetes mellitus type 2 (FIG. 4D). Blood glucose was then measured at 45 min, 2 h, and 4 h post injection of vectors or insulin.
Blood glucose measurement. At 4 hours before glucose measurement, mice were relocated to a cage with iso-PADS bedding (Envigo) with access to water but no food source. Mice were then anesthetized with isoflurane and their left hind limb was shaved. Blood glucose was measured with a Contour Next glucometer (Bayer) by puncturing the saphenous vein with a lancet and sampling 1 ul of venous blood by capillary action. After the first glucose measurement, mice were injected in the medial aspect of the right gastrocnemius muscle with either 10^9 vector genomes or 0.5 U/kg human insulin (Tocris). Subsequent blood glucose measurements were performed in the same way as the first. […]

HEK293T cells = format: cell-based, human; settings: FLuc-encoding eAAV9; luciferase activity 24 hpt

Work on “human IR ectodomain fused to an Fc tag (IR-Fc) (from UniProt P06213 28-956) (Fc fusion)” yielded an inhibition of eAAV9 transduction of HEK293T cells (luciferase activity 24 h after transduction), IC50 [1] of 0.6 nM.
For “insulin-mimetic peptide, 36 amino acid linear peptide SLEEEWAQVECEVYGRGCPSGSLDESFYDWFERQLG (SEQ ID NO:7) (SLEEEWAQVECEVYGRGCPSGSLDESFYDWFERQLG) [S519]”, the “activity on IR” value (IR [2]) is listed as “behaves as an agonist; also recorded: agonist activity on IR” and the pKd (IR [3]; human IR, read-out: Kd for IR) is listed as 10.70.
For “insulin-mimetic peptide GSLDESFYDWFERQLGKK (SEQ ID NO:8) [S371]”, the “activity on IR” value (IR [2]) is listed as “activates the receptor in the absence of insulin” and the pKd (IR [3]; read-out: affinity of binding to IR) is listed as about 7.40.
With “human insulin (Tocris) (from UniProt P01308 90-110) (ligand)” the inhibition of eAAV9 transduction of HEK293T cells by human insulin (luciferase activity), IC50 [4] was 5.2 µg/mL.
In the case of human insulin, the blood glucose ([5]; 2 and 4 hours) was “rebound effect”, the blood glucose ([5]; 45 min) was “sharp and statistically significant decrease” and the “IC50 of human insulin for inhibition of eAAV9 transduction” value (HEK293T cells) was 5.2 µg/mL.
